From article PMC2175198 come the findings set out here.

The target of this experiment is ribosomes (membrane-bound, carrying nascent chains) (S. cerevisiae (endogenous in yeast microsomes)). The experiment can be described thus: co-sedimentation.

“Sec61p of the sec61-3 mutant (from UniProt P32915 1-480) (natural protein)” had a percent of Sec61p bound to ribosomes (25°C; sec61-3 strain) of 30%.

B1: Sec61p (natural protein)
chain: MSSNRVLDLFKPFESFLPEVIAPERKVPYNQKLIWTGVSLLIFLILGQIPLYGIVSSETSDPLYWLRAMLASNRGTLLELGVSPIITSSMIFQFLQGTQLLQIRPESKQDRELFQIAQKVCAIILILGQALVVVMTGNYGAPSDLGLPICLLLIFQLMFASLIVMLLDELLSKGYGLGSGISLFTATNIAEQIFWRAFAPTTVNSGRGKEFEGAVIAFFHLLAVRKDKKRALVEAFYRTNLPNMFQVLMTVAIFLFVLYLQGFRYELPIRSTKVRGQIGIYPIKLFYTSNTPIMLQSALTSNIFLISQILFQKYPTNPLIRLIGVWGIRPGTQGPQMALSGLAYYIQPLMSLSEALLDPIKTIVYITFVLGSCAVFSKTWIEISGTSPRDIAKQFKDQGMVINGKRETSIYRELKKIIPTAAAFGGATIGALSVGSDLLGTLGSGASILMATTTIYGYYEAAAKEGGFTKNLVPGFSDLM
The molecule B1 gave a percent of Sec61p bound to ribosomes (25°C; wild-type and srp101-47 strains) of 30%; a percent of Sec61p bound to ribosomes (srp101-47 strain, 3 h at 37°C) of 20%.
